Source: patent publication US20040213795A1

Target: Human PD-1 fusion protein (human) (UniProt Q15116)
Test: ELISA on coated human PD-1/IgG chimera (2.5 ug/ml), HRP anti-murine antibody

Chain of Human PD-1 fusion protein (human) (Q15116 other isoform, or with tags, fused parts or gaps): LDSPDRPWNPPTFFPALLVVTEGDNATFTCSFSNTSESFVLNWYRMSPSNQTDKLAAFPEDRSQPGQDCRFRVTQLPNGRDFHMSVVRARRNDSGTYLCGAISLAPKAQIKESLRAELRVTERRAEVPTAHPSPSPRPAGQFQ

## Murine anti-human PD-1 antibody J110
  EC50 (read off the curve): 1 µg/mL
